From patent US20110318339A1 (FABRUS, published 2011)

B1: Fab VH5-51_IGHD5-18*01>3_IGHJ4*01 & V3-4_IGLJ1*01 (Fab, V domains shown)
VH: EVQLVQSGAEVKKPGESLKISCKGSGYSFTSYWIGWVRQMPGKGLEWMGIIYPGDSDTRYSPSFQGQVTISADKSISTAYLQWSSLKASDTAMYYCARRGYSYGYDYFDYWGQGTLVTVSS
VL: QTVVTQEPSFSVSPGGTVTLTCGLSSGSVSTSYYPSWYQQTPGQAPRTLIYSTNTRSSGVPDRFSGSILGNKAALTITGAQADDESDYYCVLYMGSGISYVFGTGTKVTVL
notes: Fab made in E. coli: VH on CH1 with His6 and Flag tags (Plasmid A), VL on lambda CL (Plasmid E); also called wildtype; parent
B2: Fab VH5-51_IGHD5-18*01>3_IGHJ4*01 G100K/G104T G24T/S28R/G35V & V3-4_IGLJ1*01 V91L/S96P S52P (Fab, V domains shown)
VH: EVQLVQSGAEVKKPGESLKISCKTSGYRFTSYWIVWVRQMPGKGLEWMGIIYPGDSDTRYSPSFQGQVTISADKSISTAYLQWSSLKASDTAMYYCARRKYSYTYDYFDYWGQGTLVTVSS
VL: QTVVTQEPSFSVSPGGTVTLTCGLSSGSVSTSYYPSWYQQTPGQAPRTLIYPTNTRSSGVPDRFSGSILGNKAALTITGAQADDESDYYCLLYMGPGISYVFGTGTKVTVL
notes: Fab made in E. coli: VH on CH1 with His6 and Flag tags (Plasmid A), VL on lambda CL (Plasmid E); also called H: KT TRV & L: LP S52P
B3: Fab VH5-51_IGHD5-18*01>3_IGHJ4*01 G100K/G104T G24T/S28R/G35V & V3-4_IGLJ1*01 V91L/S96P S52Y (Fab, V domains shown)
VH: EVQLVQSGAEVKKPGESLKISCKTSGYRFTSYWIVWVRQMPGKGLEWMGIIYPGDSDTRYSPSFQGQVTISADKSISTAYLQWSSLKASDTAMYYCARRKYSYTYDYFDYWGQGTLVTVSS
VL: QTVVTQEPSFSVSPGGTVTLTCGLSSGSVSTSYYPSWYQQTPGQAPRTLIYYTNTRSSGVPDRFSGSILGNKAALTITGAQADDESDYYCLLYMGPGISYVFGTGTKVTVL
notes: Fab made in E. coli: VH on CH1 with His6 and Flag tags (Plasmid A), VL on lambda CL (Plasmid E); also called H: KT TRV & L: LP S52Y
B4: Fab VH5-51_IGHD5-18*01>3_IGHJ4*01 G100K/G104T G24T/S28R/G35V & V3-4_IGLJ1*01 V91L/S96P S52N (Fab, V domains shown)
VH: EVQLVQSGAEVKKPGESLKISCKTSGYRFTSYWIVWVRQMPGKGLEWMGIIYPGDSDTRYSPSFQGQVTISADKSISTAYLQWSSLKASDTAMYYCARRKYSYTYDYFDYWGQGTLVTVSS
VL: QTVVTQEPSFSVSPGGTVTLTCGLSSGSVSTSYYPSWYQQTPGQAPRTLIYNTNTRSSGVPDRFSGSILGNKAALTITGAQADDESDYYCLLYMGPGISYVFGTGTKVTVL
notes: Fab made in E. coli: VH on CH1 with His6 and Flag tags (Plasmid A), VL on lambda CL (Plasmid E); also called H: KT TRV & L: LP S52N
B5: Fab VH5-51_IGHD5-18*01>3_IGHJ4*01 G100K/G104T G24T/S28R/G35V & V3-4_IGLJ1*01 V91L/S96P S52Q (Fab, V domains shown)
VH: EVQLVQSGAEVKKPGESLKISCKTSGYRFTSYWIVWVRQMPGKGLEWMGIIYPGDSDTRYSPSFQGQVTISADKSISTAYLQWSSLKASDTAMYYCARRKYSYTYDYFDYWGQGTLVTVSS
VL: QTVVTQEPSFSVSPGGTVTLTCGLSSGSVSTSYYPSWYQQTPGQAPRTLIYQTNTRSSGVPDRFSGSILGNKAALTITGAQADDESDYYCLLYMGPGISYVFGTGTKVTVL
notes: Fab made in E. coli: VH on CH1 with His6 and Flag tags (Plasmid A), VL on lambda CL (Plasmid E); also called H: KT TRV & L: LP S52Q
B6: Fab VH5-51_IGHD5-18*01>3_IGHJ4*01 G100K/G104T G24T/S28R/G35V & V3-4_IGLJ1*01 V91L/S96P S52K (Fab, V domains shown)
VH: EVQLVQSGAEVKKPGESLKISCKTSGYRFTSYWIVWVRQMPGKGLEWMGIIYPGDSDTRYSPSFQGQVTISADKSISTAYLQWSSLKASDTAMYYCARRKYSYTYDYFDYWGQGTLVTVSS
VL: QTVVTQEPSFSVSPGGTVTLTCGLSSGSVSTSYYPSWYQQTPGQAPRTLIYKTNTRSSGVPDRFSGSILGNKAALTITGAQADDESDYYCLLYMGPGISYVFGTGTKVTVL
notes: Fab made in E. coli: VH on CH1 with His6 and Flag tags (Plasmid A), VL on lambda CL (Plasmid E); also called H: KT TRV & L: LP S52K
B7: Fab VH5-51_IGHD5-18*01>3_IGHJ4*01 G100K/G104T G24T/S28R/G35V & V3-4_IGLJ1*01 V91L/S96P S52H (Fab, V domains shown)
VH: EVQLVQSGAEVKKPGESLKISCKTSGYRFTSYWIVWVRQMPGKGLEWMGIIYPGDSDTRYSPSFQGQVTISADKSISTAYLQWSSLKASDTAMYYCARRKYSYTYDYFDYWGQGTLVTVSS
VL: QTVVTQEPSFSVSPGGTVTLTCGLSSGSVSTSYYPSWYQQTPGQAPRTLIYHTNTRSSGVPDRFSGSILGNKAALTITGAQADDESDYYCLLYMGPGISYVFGTGTKVTVL
notes: Fab made in E. coli: VH on CH1 with His6 and Flag tags (Plasmid A), VL on lambda CL (Plasmid E); also called H: KT TRV & L: LP S52H
B8: Fab VH5-51_IGHD5-18*01>3_IGHJ4*01 G100K/G104T G24T/S28R/G35V & V3-4_IGLJ1*01 V91L/S96P S52F (Fab, V domains shown)
VH: EVQLVQSGAEVKKPGESLKISCKTSGYRFTSYWIVWVRQMPGKGLEWMGIIYPGDSDTRYSPSFQGQVTISADKSISTAYLQWSSLKASDTAMYYCARRKYSYTYDYFDYWGQGTLVTVSS
VL: QTVVTQEPSFSVSPGGTVTLTCGLSSGSVSTSYYPSWYQQTPGQAPRTLIYFTNTRSSGVPDRFSGSILGNKAALTITGAQADDESDYYCLLYMGPGISYVFGTGTKVTVL
notes: Fab made in E. coli: VH on CH1 with His6 and Flag tags (Plasmid A), VL on lambda CL (Plasmid E); also called H: KT TRV & L: LP S52F
B9: Fab VH5-51_IGHD5-18*01>3_IGHJ4*01 G100K/G104T G24T/S28R/G35V & V3-4_IGLJ1*01 V91L/S96P S52I (Fab, V domains shown)
VH: EVQLVQSGAEVKKPGESLKISCKTSGYRFTSYWIVWVRQMPGKGLEWMGIIYPGDSDTRYSPSFQGQVTISADKSISTAYLQWSSLKASDTAMYYCARRKYSYTYDYFDYWGQGTLVTVSS
VL: QTVVTQEPSFSVSPGGTVTLTCGLSSGSVSTSYYPSWYQQTPGQAPRTLIYITNTRSSGVPDRFSGSILGNKAALTITGAQADDESDYYCLLYMGPGISYVFGTGTKVTVL
notes: Fab made in E. coli: VH on CH1 with His6 and Flag tags (Plasmid A), VL on lambda CL (Plasmid E); also called H: KT TRV & L: LP S52I
B10: Fab VH5-51_IGHD5-18*01>3_IGHJ4*01 G100K/G104T G24T/S28R/G35V & V3-4_IGLJ1*01 V91L/S96P S52V (Fab, V domains shown)
VH: EVQLVQSGAEVKKPGESLKISCKTSGYRFTSYWIVWVRQMPGKGLEWMGIIYPGDSDTRYSPSFQGQVTISADKSISTAYLQWSSLKASDTAMYYCARRKYSYTYDYFDYWGQGTLVTVSS
VL: QTVVTQEPSFSVSPGGTVTLTCGLSSGSVSTSYYPSWYQQTPGQAPRTLIYVTNTRSSGVPDRFSGSILGNKAALTITGAQADDESDYYCLLYMGPGISYVFGTGTKVTVL
notes: Fab made in E. coli: VH on CH1 with His6 and Flag tags (Plasmid A), VL on lambda CL (Plasmid E); also called H: KT TRV & L: LP S52V
B11: Fab VH5-51_IGHD5-18*01>3_IGHJ4*01 G100K/G104T G24T/S28R/G35V & V3-4_IGLJ1*01 V91L/S96P S52L (Fab, V domains shown)
VH: EVQLVQSGAEVKKPGESLKISCKTSGYRFTSYWIVWVRQMPGKGLEWMGIIYPGDSDTRYSPSFQGQVTISADKSISTAYLQWSSLKASDTAMYYCARRKYSYTYDYFDYWGQGTLVTVSS
VL: QTVVTQEPSFSVSPGGTVTLTCGLSSGSVSTSYYPSWYQQTPGQAPRTLIYLTNTRSSGVPDRFSGSILGNKAALTITGAQADDESDYYCLLYMGPGISYVFGTGTKVTVL
notes: Fab made in E. coli: VH on CH1 with His6 and Flag tags (Plasmid A), VL on lambda CL (Plasmid E); also called H: KT TRV & L: LP S52L
B12: Fab VH5-51_IGHD5-18*01>3_IGHJ4*01 G100K/G104T G24T/S28R/G35V & V3-4_IGLJ1*01 V91L/S96P S52T (Fab, V domains shown)
VH: EVQLVQSGAEVKKPGESLKISCKTSGYRFTSYWIVWVRQMPGKGLEWMGIIYPGDSDTRYSPSFQGQVTISADKSISTAYLQWSSLKASDTAMYYCARRKYSYTYDYFDYWGQGTLVTVSS
VL: QTVVTQEPSFSVSPGGTVTLTCGLSSGSVSTSYYPSWYQQTPGQAPRTLIYTTNTRSSGVPDRFSGSILGNKAALTITGAQADDESDYYCLLYMGPGISYVFGTGTKVTVL
notes: Fab made in E. coli: VH on CH1 with His6 and Flag tags (Plasmid A), VL on lambda CL (Plasmid E); also called H: KT TRV & L: LP S52T
B13: Fab VH1-46_IGHD6-6*01_IGHJ1*01 S102A/S103P/S104F/H111F G56H & L6_IGKJ1*01 (Fab, V domains shown)
VH: QVQLVQSGAEVKKPGASVKVSCKASGYTFTSYYMHWVRQAPGQGLEWMGIINPSGHSTSYAQKFQGRVTMTRDTSTSTVYMELSSLRSEDTAVYYCAREEYAPFSAEYFQFWGQGTLVTVSS
VL: not shown
notes: Fab made in E. coli: VH on CH1 with His6 and Flag tags (Plasmid A), VL on kappa CL (Plasmid C); also called H: APFF G56H & L: wt

Legend:
[1] = molecular target: T1, recombinant human DLL4 (Cat# 1506-D4/CF, R&D Systems) (human, UniProt Q9NR61 27-529); assay: ELISA, DLL4 coated, Fab 50 nM
T1 construct: Bought protein; also called hDLL4; rHuman DLL4
Description: (§1) In this example, an ELISA binding assay was used to assess the dose-dependent binding of Fab antibodies to recombinant human DLL4 and recombinant mouse DLL4.
(§2) The plate was blocked by adding 1% BSA in Tris-buffered Saline Tween (TBST) and incubating for 1 hour at room temperature followed by washing 2 times with 150 μl TBST. A Fab antibody was serially diluted in 1% BSA in PBS. A 50 μl aliquot of each serial dilution was added, in triplicate, to each well and the plate was incubated for 1 hour at room temperature followed by washing 2 times with TBST. 50 μl of either goat anti-human kappa HRP conjugated secondary antibody (Cat # A7164-1 mL, Sigma-Aldrich) or goat anti-human lambda HRP conjugated secondary antibody (Cat # L1645-1 ml, Sigma-Aldrich), diluted 1:1000 in 1% BSA in PBS, was added to each well and the plate was incubated for 30 minutes at room temperature followed by washing 3 times with 200 μl TBST. Finally, 50 μl TMB one-component reagent (Cat # TMBW-1000-01, BioFax) was added and allowed to develop for 2 minutes at room temperature. The reaction was immediately halted by the addition of 50 μl 0.5M H₂SO₄ and the absorbance at 450 nm was measured using an ELISA plate reader.

[2] = molecular target: T1, recombinant human DLL4 (Cat# …); assay: ELISA, DLL4 coated, Fab 25 nM
Description: as §2

[3] = molecular target: T1, recombinant human DLL4 (Cat# …); assay: ELISA, DLL4 coated, Fab 100 nM
Description: as §1, §2

[4] = molecular target: T1, recombinant human DLL4 (Cat# …); assay: ELISA, DLL4 coated, Fab 12.5 nM
Description: as §1, §2

[5] = molecular target: T1, recombinant human DLL4 (Cat# …); assay: SPR (ProteOn), hDLL4 amine-coupled on chip
Description: In this example, the binding affinities of selected anti-DLL4 Fabs to recombinant human DLL4 (hDLL4, Cat# 1506-D4/CF, R&D Systems) were analyzed using Surface Plasmon Resonance (SPR) (Biosensor Tools, Salt Lake City, Utah). The Fabs analyzed include germline-derived antibodies and germline-modified DLL4 antibodies. Recombinant hDLL4 was immobilized on a SPR chip using amine coupling at three different surface densities. The Fabs were serially diluted 3-fold, with an initial concentration of 1 μM. Binding studies were run on a ProteOn system using a GLM sensor chip in 10 mM HEPES, pH 7.4, 150 mM NaCl, 0.01% Tween-20, and 0.1 mg/ml BSA at 25° C. The response data from each surface was globally fit to determine the binding constants.

Binder	ELISA absorbance at 450 nm [1] [A450]	ELISA absorbance at 450 nm [2] [A450]	ELISA absorbance at 450 nm [3] [A450]	ELISA absorbance at 450 nm [4] [A450]	Kd [5] [nM]	koff [5] [s⁻¹]	kon [5] [M⁻¹ s⁻¹]
B1	0.16	0.18	0.17	0.17			
B2	0.79	0.59	1	0.43			
B3	0.72	0.56	0.9	0.41			
B4	0.9	0.86	1.05	0.65			
B5	0.81	0.67	0.96	0.47			
B6	1.03	0.79	1.23	0.56			
B7	0.91	0.73	1.09	0.5			
B8	0.69	0.49	0.99	0.42			
B9	0.82	0.6	1.04	0.4			
B10	0.74	0.6	0.95	0.43			
B11	0.78	0.58	1.02	0.43			
B12	0.79	0.62	0.99	0.41			
B13					32.7	0.0101	351000
